Test results: article PMC4434323

Assays:
[1] = target: T1, ham-2 (C07A12.1) (Caenorhabditis elegans) (UniProt H2KYH4)
T1 sequence: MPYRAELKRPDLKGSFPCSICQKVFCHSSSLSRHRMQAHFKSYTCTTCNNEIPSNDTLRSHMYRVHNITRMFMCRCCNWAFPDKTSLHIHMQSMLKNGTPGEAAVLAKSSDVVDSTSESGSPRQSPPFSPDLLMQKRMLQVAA

[2] = target: T2, ztf-29 (Y66D12A.12) (Caenorhabditis elegans) (UniProt Q95Q03)
T2 sequence: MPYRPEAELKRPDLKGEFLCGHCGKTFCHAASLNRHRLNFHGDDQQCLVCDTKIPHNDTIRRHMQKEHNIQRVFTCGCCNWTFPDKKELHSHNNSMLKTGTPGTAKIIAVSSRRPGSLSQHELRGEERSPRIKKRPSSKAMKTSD

[3] = target: T3, B0310.2 (B0310.2) (Caenorhabditis elegans) (UniProt Q10938)
T3 sequence: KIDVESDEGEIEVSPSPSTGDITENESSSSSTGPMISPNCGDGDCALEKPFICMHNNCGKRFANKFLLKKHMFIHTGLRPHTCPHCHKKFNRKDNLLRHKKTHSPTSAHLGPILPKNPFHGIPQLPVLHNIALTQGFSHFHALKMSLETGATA

[4] = target: atf-7 (C07G2.2) (Caenorhabditis elegans) (UniProt Q86MD3)
Sequence of atf-7 (C07G2.2) (Caenorhabditis elegans) (Q86MD3 339-508): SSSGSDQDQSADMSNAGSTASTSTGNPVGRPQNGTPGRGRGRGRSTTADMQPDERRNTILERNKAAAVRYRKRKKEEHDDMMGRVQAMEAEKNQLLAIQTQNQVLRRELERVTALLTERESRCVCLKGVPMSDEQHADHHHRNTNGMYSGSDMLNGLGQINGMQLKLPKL

[5] = target: T4, zip-3 (W07G1.3) (Caenorhabditis elegans) (UniProt Q9XUK2)
T4 sequence: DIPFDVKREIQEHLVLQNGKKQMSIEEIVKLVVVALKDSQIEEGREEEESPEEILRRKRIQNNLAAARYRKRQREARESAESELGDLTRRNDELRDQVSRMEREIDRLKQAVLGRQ

[6] = target: T5, die-1 (C18D1.1) (Caenorhabditis elegans) (UniProt A0A131MCR4)
T5 sequence: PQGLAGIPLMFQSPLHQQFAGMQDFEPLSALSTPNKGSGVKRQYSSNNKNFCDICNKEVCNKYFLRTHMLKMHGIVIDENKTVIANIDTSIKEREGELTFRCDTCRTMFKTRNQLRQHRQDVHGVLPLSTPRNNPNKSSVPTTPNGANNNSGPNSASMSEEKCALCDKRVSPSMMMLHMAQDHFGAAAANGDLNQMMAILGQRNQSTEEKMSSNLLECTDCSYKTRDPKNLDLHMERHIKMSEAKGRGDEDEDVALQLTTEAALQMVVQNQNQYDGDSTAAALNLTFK

[7] = target: ZC328.2 (ZC328.2) (Caenorhabditis elegans) (UniProt O02050)
Sequence of ZC328.2 (ZC328.2) (Caenorhabditis elegans) (O02050 entry or part of it): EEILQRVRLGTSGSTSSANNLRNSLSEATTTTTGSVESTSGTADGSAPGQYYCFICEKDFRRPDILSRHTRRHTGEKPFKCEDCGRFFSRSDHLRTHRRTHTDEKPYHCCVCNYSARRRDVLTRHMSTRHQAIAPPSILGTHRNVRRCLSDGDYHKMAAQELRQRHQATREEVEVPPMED

[8] = target: egrh-1 (C27C12.2) (Caenorhabditis elegans) (UniProt Q18250)
Sequence of egrh-1 (C27C12.2) (Caenorhabditis elegans) (Q18250 324-461): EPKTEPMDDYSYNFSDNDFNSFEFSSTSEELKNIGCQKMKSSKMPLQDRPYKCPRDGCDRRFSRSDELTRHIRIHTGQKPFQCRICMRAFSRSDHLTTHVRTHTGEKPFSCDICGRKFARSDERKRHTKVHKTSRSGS

[9] = target: T6, atf-5 (T04C10.4) (Caenorhabditis elegans) (UniProt Q22156)
T6 sequence: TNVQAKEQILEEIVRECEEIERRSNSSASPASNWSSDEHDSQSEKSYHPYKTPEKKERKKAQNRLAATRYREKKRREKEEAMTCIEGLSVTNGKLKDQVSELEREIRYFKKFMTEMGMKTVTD

[10] = target: T7, tbx-39 (Y73F8A.16) (Caenorhabditis elegans) (UniProt Q9NA56)
T7 sequence: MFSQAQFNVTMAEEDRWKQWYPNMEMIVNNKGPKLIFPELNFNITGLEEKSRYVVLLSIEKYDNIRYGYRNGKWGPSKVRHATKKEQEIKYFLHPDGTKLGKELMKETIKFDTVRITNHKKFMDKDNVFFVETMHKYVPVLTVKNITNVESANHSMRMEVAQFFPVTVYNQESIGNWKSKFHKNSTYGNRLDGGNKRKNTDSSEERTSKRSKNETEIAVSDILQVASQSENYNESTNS

[11] = target: T8, ztf-19 (T27B1.2) (Caenorhabditis elegans) (UniProt Q22829)
T8 sequence: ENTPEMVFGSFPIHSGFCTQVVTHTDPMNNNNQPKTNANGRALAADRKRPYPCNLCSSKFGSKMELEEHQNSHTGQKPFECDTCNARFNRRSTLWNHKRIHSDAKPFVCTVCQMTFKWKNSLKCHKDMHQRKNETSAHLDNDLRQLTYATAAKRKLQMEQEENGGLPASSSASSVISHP

AAAGCTTA (double strand) [8-mer AAAGCTTA]
binding signal (PBM E-score (-0.5 to 0.5)) [1]: 0.481 | binding signal (PBM E-score (-0.5 to 0.5)) [2]: 0.485

AACCTCAA (double strand) [8-mer AACCTCAA]
binding signal (PBM E-score (-0.5 to 0.5)) [3]: 0.483

AACGTCAT (double strand) [8-mer AACGTCAT]
binding signal (PBM E-score (-0.5 to 0.5)) [4]: 0.495 | binding signal (PBM E-score (-0.5 to 0.5)) [5]: 0.486

AAGCTAGC (double strand) [8-mer AAGCTAGC]
binding signal (PBM E-score (-0.5 to 0.5)) [1]: 0.476

AAGCTTAC (double strand) [8-mer AAGCTTAC]
binding signal (PBM E-score (-0.5 to 0.5)) [1]: 0.489 | binding signal (PBM E-score (-0.5 to 0.5)) [2]: 0.485

AAGCTTAT (double strand) [8-mer AAGCTTAT]
binding signal (PBM E-score (-0.5 to 0.5)) [1]: 0.487 | binding signal (PBM E-score (-0.5 to 0.5)) [2]: 0.488

AATTTAAA (double strand) [8-mer AATTTAAA]
binding signal (PBM E-score (-0.5 to 0.5)) [6]: 0.497

ACCCCCGC (double strand) [8-mer ACCCCCGC]
binding signal (PBM E-score (-0.5 to 0.5)) [7]: 0.492 | binding signal (PBM E-score (-0.5 to 0.5)) [8]: 0.485

ACCTCAAA (double strand) [8-mer ACCTCAAA]
binding signal (PBM E-score (-0.5 to 0.5)) [3]: 0.481

ACCTCAAT (double strand) [8-mer ACCTCAAT]
binding signal (PBM E-score (-0.5 to 0.5)) [3]: 0.49

ACCTCACT (double strand) [8-mer ACCTCACT]
binding signal (PBM E-score (-0.5 to 0.5)) [3]: 0.478

ACGTCATA (double strand) [8-mer ACGTCATA]
binding signal (PBM E-score (-0.5 to 0.5)) [9]: 0.464 | binding signal (PBM E-score (-0.5 to 0.5)) [4]: 0.497 | binding signal (PBM E-score (-0.5 to 0.5)) [5]: 0.493

ACGTCATG (double strand) [8-mer ACGTCATG]
binding signal (PBM E-score (-0.5 to 0.5)) [4]: 0.496 | binding signal (PBM E-score (-0.5 to 0.5)) [5]: 0.486

ACTTGGTA (double strand) [8-mer ACTTGGTA]
binding signal (PBM E-score (-0.5 to 0.5)) [10]: 0.472

ACTTTAAA (double strand) [8-mer ACTTTAAA]
binding signal (PBM E-score (-0.5 to 0.5)) [6]: 0.493

AGATGACG (double strand) [8-mer AGATGACG]
binding signal (PBM E-score (-0.5 to 0.5)) [5]: 0.487

AGCTAGCT (double strand) [8-mer AGCTAGCT]
binding signal (PBM E-score (-0.5 to 0.5)) [1]: 0.488

AGGGGGCG (double strand) [8-mer AGGGGGCG]
binding signal (PBM E-score (-0.5 to 0.5)) [8]: 0.486

AGTTTAAA (double strand) [8-mer AGTTTAAA]
binding signal (PBM E-score (-0.5 to 0.5)) [6]: 0.49 | binding signal (PBM E-score (-0.5 to 0.5)) [11]: 0.495

ATACCTCA (double strand) [8-mer ATACCTCA]
binding signal (PBM E-score (-0.5 to 0.5)) [3]: 0.485

ATATGACG (double strand) [8-mer ATATGACG]
binding signal (PBM E-score (-0.5 to 0.5)) [5]: 0.493

ATATGATG (double strand) [8-mer ATATGATG]
binding signal (PBM E-score (-0.5 to 0.5)) [5]: 0.486

ATCCCTCA (double strand) [8-mer ATCCCTCA]
binding signal (PBM E-score (-0.5 to 0.5)) [3]: 0.482

ATGACGCG (double strand) [8-mer ATGACGCG]
binding signal (PBM E-score (-0.5 to 0.5)) [5]: 0.488

ATGACGTA (double strand) [8-mer ATGACGTA]
binding signal (PBM E-score (-0.5 to 0.5)) [9]: 0.459 | binding signal (PBM E-score (-0.5 to 0.5)) [4]: 0.498 | binding signal (PBM E-score (-0.5 to 0.5)) [5]: 0.49

ATGACGTC (double strand) [8-mer ATGACGTC]
binding signal (PBM E-score (-0.5 to 0.5)) [9]: 0.468 | binding signal (PBM E-score (-0.5 to 0.5)) [4]: 0.497 | binding signal (PBM E-score (-0.5 to 0.5)) [5]: 0.493

ATGAGGGA (double strand) [8-mer ATGAGGGA]
binding signal (PBM E-score (-0.5 to 0.5)) [3]: 0.478

ATGAGGTA (double strand) [8-mer ATGAGGTA]
binding signal (PBM E-score (-0.5 to 0.5)) [3]: 0.484

ATGCTAAT (double strand) [8-mer ATGCTAAT]
binding signal (PBM E-score (-0.5 to 0.5)) [1]: 0.478

ATGCTTAA (double strand) [8-mer ATGCTTAA]
binding signal (PBM E-score (-0.5 to 0.5)) [1]: 0.48

ATTTAAAA (double strand) [8-mer ATTTAAAA]
binding signal (PBM E-score (-0.5 to 0.5)) [6]: 0.481

ATTTAAAC (double strand) [8-mer ATTTAAAC]
binding signal (PBM E-score (-0.5 to 0.5)) [6]: 0.484
